Kd data for one substance are collected here from paper PMC11473951.

As a reminder, the pKd is the Kd on a negative log10 scale, so that one unit is a factor of ten. A high value points to a low Kd.

What all share (assay): SPR
On the technique in general: In SPR one partner is held on a chip, and binding of the other changes the refractive index at the surface.

The target in assay [1] is human monoclonal antibody R5.034 (human).
In assay [2] the target is human monoclonal antibody R5.016 (human).
Sequence of human monoclonal antibody R5.016 (human) (heavy, as listed by the source, chain 1 of 2): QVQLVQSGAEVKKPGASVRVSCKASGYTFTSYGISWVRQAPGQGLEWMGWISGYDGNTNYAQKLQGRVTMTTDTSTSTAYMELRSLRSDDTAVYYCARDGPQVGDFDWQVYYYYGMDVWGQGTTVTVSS
Sequence of human monoclonal antibody R5.016 (human) (light, as listed by the source, chain 2 of 2): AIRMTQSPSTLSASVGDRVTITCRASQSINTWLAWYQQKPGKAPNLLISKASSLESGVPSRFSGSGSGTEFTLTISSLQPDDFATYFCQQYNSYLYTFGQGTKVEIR
Assay [3] has as its target monoclonal antibody 9AD4 (mouse).

pKd: −log10 of the molar value.

Sequence of monoclonal antibody 9AD4 (mouse) (light, as listed by the source, chain 2 of 2, other chains not shown): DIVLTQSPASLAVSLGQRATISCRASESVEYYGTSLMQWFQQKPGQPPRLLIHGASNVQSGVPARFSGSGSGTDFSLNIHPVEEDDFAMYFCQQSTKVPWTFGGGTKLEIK
Sequence of human monoclonal antibody R5.034 (human) (heavy, as listed by the source, chain 1 of 2): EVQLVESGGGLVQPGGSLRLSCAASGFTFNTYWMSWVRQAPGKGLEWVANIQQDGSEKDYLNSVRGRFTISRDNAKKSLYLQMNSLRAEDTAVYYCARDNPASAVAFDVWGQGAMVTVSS
Sequence of human monoclonal antibody R5.034 (human) (light, as listed by the source, chain 2 of 2): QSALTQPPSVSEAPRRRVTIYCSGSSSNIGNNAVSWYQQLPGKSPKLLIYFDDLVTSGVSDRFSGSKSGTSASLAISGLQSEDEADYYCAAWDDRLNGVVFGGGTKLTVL

Regarding “PfRH5 (from UniProt Q8IFM5 25-526) (natural protein)”, the values for the pKd in assay [1], in assay [2] and in assay [3] were 10.03, 8.62 and 8.80, respectively.
